The text below walks through data of IntAct's records for PubMed 23809763.

To fix the notation:
B1: R-spondin-1 (Homo sapiens), Q2MKA7 (parent)
chain: MRLGLCVVALVLSWTHLTISSRGIKGKRQRRISAEGSQACAKGCELCSEVNGCLKCSPKLFILLERNDIRQVGVCLPSCPPGYFDARNPDMNKCIKCKIEHCEACFSHNFCTKCKEGLYLHKGRCYPACPEGSSAANGTMECSSPAQCEMSEWSPWGPCSKKQQLCGFRRGSEERTRRVLHAPVGDHAACSDTKETRRCTVRRVPCPEGQKRRKGGQGRRENANRNLARKESKEAGAGSRRRKGQQQQQQQGTVGPLTSAGPA
partner: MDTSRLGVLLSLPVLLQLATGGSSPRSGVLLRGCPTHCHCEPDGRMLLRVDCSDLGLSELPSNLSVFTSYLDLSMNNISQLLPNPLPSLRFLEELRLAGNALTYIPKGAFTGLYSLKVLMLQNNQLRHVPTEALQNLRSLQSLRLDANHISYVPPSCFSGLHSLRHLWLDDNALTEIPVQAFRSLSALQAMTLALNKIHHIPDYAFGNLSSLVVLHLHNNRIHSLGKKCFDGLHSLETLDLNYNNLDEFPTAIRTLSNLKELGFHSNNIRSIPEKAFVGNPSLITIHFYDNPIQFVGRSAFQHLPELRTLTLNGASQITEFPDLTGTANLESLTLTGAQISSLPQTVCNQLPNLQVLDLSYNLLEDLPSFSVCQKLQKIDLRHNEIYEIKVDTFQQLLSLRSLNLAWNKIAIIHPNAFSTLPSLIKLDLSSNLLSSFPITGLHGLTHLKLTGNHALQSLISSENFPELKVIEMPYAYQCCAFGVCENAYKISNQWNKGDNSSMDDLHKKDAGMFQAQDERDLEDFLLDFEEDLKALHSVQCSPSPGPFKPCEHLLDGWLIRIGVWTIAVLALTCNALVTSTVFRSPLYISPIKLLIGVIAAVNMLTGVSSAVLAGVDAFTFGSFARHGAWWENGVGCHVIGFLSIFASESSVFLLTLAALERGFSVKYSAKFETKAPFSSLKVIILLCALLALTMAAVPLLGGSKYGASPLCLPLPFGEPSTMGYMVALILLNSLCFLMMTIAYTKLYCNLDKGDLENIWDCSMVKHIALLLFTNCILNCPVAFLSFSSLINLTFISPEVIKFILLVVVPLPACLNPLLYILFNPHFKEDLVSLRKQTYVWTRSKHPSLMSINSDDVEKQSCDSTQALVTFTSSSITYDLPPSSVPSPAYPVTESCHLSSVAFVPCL

The variants in the test derive from B1. As to conditions: with lgr5_human LGR5, O75473.
Consider MRLGLCVVALVLSWTHLTISSRGIKGKRQRRISAEGSQACAKGCELCSEVNGCLKCSPKLFILLERNDIRQVEVCLPSCPPGYFDARNPDMNKCIKCKIEHCEACFSHNFCTKCKEGLYLHKGRCYPACPEGSSAANGTMECSSPAQCEMSEWSPWGPCSKKQQLCGFRRGSEERTRRVLHAPVGDHAACSDTKETRRCTVRRVPCPEGQKRRKGGQGRRENANRNLARKESKEAGAGSRRRKGQQQQQQQGTVGPLTSAGPA [G73E], for which the “effect of a mutation on the interaction” value was “with no effect”.
Then MRLGLCVVALVLSWTHLTISSRGIKGKRQRRISAEGSQACAKGCELCSEVNGCLKCSPKLFILLERNDIRQVRVCLPSCPPGYFDARNPDMNKCIKCKIEHCEACFSHNFCTKCKEGLYLHKGRCYPACPEGSSAANGTMECSSPAQCEMSEWSPWGPCSKKQQLCGFRRGSEERTRRVLHAPVGDHAACSDTKETRRCTVRRVPCPEGQKRRKGGQGRRENANRNLARKESKEAGAGSRRRKGQQQQQQQGTVGPLTSAGPA [G73R], with “with no effect”; and MRLGLCVVALVLSWTHLTISSRGIKGKRQRRISAEGSQACAKGCELCSEVNGCLKCSPKLFILLERNDIRQVGVCLPSCPPGYFDARNPDMNKCIKCKIEHCEACFSHNECTKCKEGLYLHKGRCYPACPEGSSAANGTMECSSPAQCEMSEWSPWGPCSKKQQLCGFRRGSEERTRRVLHAPVGDHAACSDTKETRRCTVRRVPCPEGQKRRKGGQGRRENANRNLARKESKEAGAGSRRRKGQQQQQQQGTVGPLTSAGPA [F110E], with “disrupting interaction strength”; and MRLGLCVVALVLSWTHLTISSRGIKGKRQRRISAEGSQACAKGCELCSEVNGCLKCSPKLFILLEANDIRQVGVCLPSCPPGYFDARNPDMNKCIKCKIEHCEACFSHNFCTKCKEGLYLHKGRCYPACPEGSSAANGTMECSSPAQCEMSEWSPWGPCSKKQQLCGFRRGSEERTRRVLHAPVGDHAACSDTKETRRCTVRRVPCPEGQKRRKGGQGRRENANRNLARKESKEAGAGSRRRKGQQQQQQQGTVGPLTSAGPA [R66A], with “with no effect”.
Turning to MRLGLCVVALVLSWTHLTISSRGIKGKRQRRISAEGSQACAKGCELCSEVNGCLKCSPKLFILLEWNDIRQVGVCLPSCPPGYFDARNPDMNKCIKCKIEHCEACFSHNFCTKCKEGLYLHKGRCYPACPEGSSAANGTMECSSPAQCEMSEWSPWGPCSKKQQLCGFRRGSEERTRRVLHAPVGDHAACSDTKETRRCTVRRVPCPEGQKRRKGGQGRRENANRNLARKESKEAGAGSRRRKGQQQQQQQGTVGPLTSAGPA [R66W], the “effect of a mutation on the interaction” value is “with no effect”.
Turning to MRLGLCVVALVLSWTHLTISSRGIKGKRQRRISAEGSQACAKGCELCSEVNGCLKCSPKLFILLERNDIAQVGVCLPSCPPGYFDARNPDMNKCIKCKIEHCEACFSHNFCTKCKEGLYLHKGRCYPACPEGSSAANGTMECSSPAQCEMSEWSPWGPCSKKQQLCGFRRGSEERTRRVLHAPVGDHAACSDTKETRRCTVRRVPCPEGQKRRKGGQGRRENANRNLARKESKEAGAGSRRRKGQQQQQQQGTVGPLTSAGPA [R70A], the “effect of a mutation on the interaction” value is “decreasing interaction strength”.
Take MRLGLCVVALVLSWTHLTISSRGIKGKRQRRISAEGSQACAKGCELCSEVNGCLKCSPKLFILLERNDICQVGVCLPSCPPGYFDARNPDMNKCIKCKIEHCEACFSHNFCTKCKEGLYLHKGRCYPACPEGSSAANGTMECSSPAQCEMSEWSPWGPCSKKQQLCGFRRGSEERTRRVLHAPVGDHAACSDTKETRRCTVRRVPCPEGQKRRKGGQGRRENANRNLARKESKEAGAGSRRRKGQQQQQQQGTVGPLTSAGPA [R70C]: the “effect of a mutation on the interaction” value is reported as “with no effect”.
Then MRLGLCVVALVLSWTHLTISSRGIKGKRQRRISAEGSQACAKGCELCSEVNGCLKCSPKLFILLERNDIEQVGVCLPSCPPGYFDARNPDMNKCIKCKIEHCEACFSHNFCTKCKEGLYLHKGRCYPACPEGSSAANGTMECSSPAQCEMSEWSPWGPCSKKQQLCGFRRGSEERTRRVLHAPVGDHAACSDTKETRRCTVRRVPCPEGQKRRKGGQGRRENANRNLARKESKEAGAGSRRRKGQQQQQQQGTVGPLTSAGPA [R70E], with “with no effect”; and MRLGLCVVALVLSWTHLTISSRGIKGKRQRRISAEGSQACAKGCELCSEVNGCLKCSPKLFILLERNDIRQVGVCLPSCPPGYFDARNPDMNKCIKCKIEHCEACESHNFCTKCKEGLYLHKGRCYPACPEGSSAANGTMECSSPAQCEMSEWSPWGPCSKKQQLCGFRRGSEERTRRVLHAPVGDHAACSDTKETRRCTVRRVPCPEGQKRRKGGQGRRENANRNLARKESKEAGAGSRRRKGQQQQQQQGTVGPLTSAGPA [F106E], with “disrupting interaction strength”.
The value for MRLGLCVVALVLSWTHLTISSRGIKGKRQRRISAEGSQACAKGCELCSEVNGCLKCSPKLFILLERNDIRQVGVCLPSCPPEYFDARNPDMNKCIKCKIEHCEACFSHNFCTKCKEGLYLHKGRCYPACPEGSSAANGTMECSSPAQCEMSEWSPWGPCSKKQQLCGFRRGSEERTRRVLHAPVGDHAACSDTKETRRCTVRRVPCPEGQKRRKGGQGRRENANRNLARKESKEAGAGSRRRKGQQQQQQQGTVGPLTSAGPA [G82E] was “with no effect”; that for MRLGLCVVALVLSWTHLTISSRGIKGKRQRRISAEGSQACAKGCELCSEVNGCLKCSPKLFILLERNDIRRVGVCLPSCPPGYFDARNPDMNKCIKCKIEHCEACFSHNFCTKCKEGLYLHKGRCYPACPEGSSAANGTMECSSPAQCEMSEWSPWGPCSKKQQLCGFRRGSEERTRRVLHAPVGDHAACSDTKETRRCTVRRVPCPEGQKRRKGGQGRRENANRNLARKESKEAGAGSRRRKGQQQQQQQGTVGPLTSAGPA [Q71R] was “with no effect”.
Regarding MRLGLCVVALVLSWTHLTISSRGIKGKRQRRISAEGSQACAKGCELCSEVNGCLKCSPKLFILLERNDIREVGVCLPSCPPGYFDARNPDMNKCIKCKIEHCEACFSHNFCTKCKEGLYLHKGRCYPACPEGSSAANGTMECSSPAQCEMSEWSPWGPCSKKQQLCGFRRGSEERTRRVLHAPVGDHAACSDTKETRRCTVRRVPCPEGQKRRKGGQGRRENANRNLARKESKEAGAGSRRRKGQQQQQQQGTVGPLTSAGPA [Q71E], the “effect of a mutation on the interaction” value is listed as “with no effect”.
